Test results published in patent US20190233517A1 (published 2019).
Like-named read-outs stand apart in the source and are kept apart here. Values belong to the binder of their own block, whether it stands above or below them.

How the values were obtained:
[1] = molecular target: T1, cynomolgus CD3 on primary cynomolgus T cells (UniProt Q95LI5 22-198); assay: FACS
T1 epsilon: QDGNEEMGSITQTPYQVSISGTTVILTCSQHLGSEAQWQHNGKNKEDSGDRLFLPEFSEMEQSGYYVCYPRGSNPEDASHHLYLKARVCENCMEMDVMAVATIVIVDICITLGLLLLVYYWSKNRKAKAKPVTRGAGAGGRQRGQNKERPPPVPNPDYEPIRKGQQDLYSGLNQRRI

[2] = molecular target: T2, cynomolgus CD20 on transiently transfected HEK 293 cells (cynomolgus, UniProt M4ZHZ6 1-297); assay: FACS
T2 chain: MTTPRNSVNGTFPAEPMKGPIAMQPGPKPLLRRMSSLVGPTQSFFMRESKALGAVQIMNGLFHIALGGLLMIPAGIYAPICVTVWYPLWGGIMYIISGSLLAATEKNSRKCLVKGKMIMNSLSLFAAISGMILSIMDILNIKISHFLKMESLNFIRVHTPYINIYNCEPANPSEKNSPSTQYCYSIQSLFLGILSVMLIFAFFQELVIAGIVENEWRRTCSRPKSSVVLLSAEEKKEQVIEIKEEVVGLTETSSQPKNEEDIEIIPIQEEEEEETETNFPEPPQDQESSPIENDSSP

[3] = molecular target: T3, CD20 on the cell surface of Raji cells (human, UniProt P11836 1-297); assay: FACS binding; Raji cells
T3 chain: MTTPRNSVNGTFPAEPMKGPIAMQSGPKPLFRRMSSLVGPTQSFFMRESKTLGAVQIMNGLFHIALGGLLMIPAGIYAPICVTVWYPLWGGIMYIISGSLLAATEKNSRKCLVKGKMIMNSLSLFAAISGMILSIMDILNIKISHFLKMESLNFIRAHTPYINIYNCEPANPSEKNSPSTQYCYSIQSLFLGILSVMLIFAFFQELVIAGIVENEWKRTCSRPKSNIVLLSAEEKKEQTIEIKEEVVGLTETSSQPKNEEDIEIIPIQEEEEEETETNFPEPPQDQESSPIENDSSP

[4] = molecular target: T3, CD20 on the cell surface of Raji cells; assay: FACS binding; Raji cells
[5] = molecular target: T1, cynomolgus CD3 on primary cynomolgus T …; assay: FACS binding; cyno T cells
[6] = molecular target: T2, cynomolgus CD20 on transiently …; assay: FACS binding; 293F-cynoCD20 cells
[7] = molecular target: CD3 on the cell surface of Jurkat cells (human, UniProt P07766 23-207; P04234 22-171; P09693 23-182); assay: FACS binding; Jurkat cells

B1: anti-CD20 (Ofatumumab) (antibody, V domains shown)
VH: EVQLVESGGGLVQPGRSLRLSCAASGFTFNDYAMHWVRQAPGKGLEWVSTISWNSGSIGYADSVKGRFTISRDNAKKSLYLQMNSLRAEDTALYYCAKDIQYGNYYYGMDVWGQGTTVTVSS
VL: EIVLTQSPATLSLSPGERATLSCRASQSVSSYLAWYQQKPGQAPRLLIYDASNRATGIPARFSGSGSGTDFTLTISSLEPEDFAVYYCQQRSNWPITFGQGTRLEIK
EC50 [1]: 490 nM
EC50 [2]: 3.07 nM

B4: CD3 mAb (described in US2009/0252683) (antibody, V domains shown)
VH: EVQLLESGGGLVQPGGSLKLSCAASGFTFNTYAMNWVRQAPGKGLEWVARIRSKYNNYATYYADSVKDRFTISRDDSKNTAYLQMNNLKTEDTAVYYCVRHGNFGNSYVSWFAYWGQGTLVTVSS
VL: ELVVTQEPSLTVSPGGTVTLTCRSSTGAVTTSNYANWVQQKPGQAPRGLIGGTNKRAPGTPARFSGSLLGGKAALTLSGVQPEDEAEYYCALWYSNLWVFGGGTKLTVL
EC50 [4]: ~8160 nM
EC50 [7]: 0.848 nM
EC50 [5]: 1.15 nM

More lines, now with the values ahead:

EC50 [3]: 7.66 nM
B2: FIT021b (antibody)
chain 1: not shown
chain 2: MEFGLSWLFLVAILKGVQCEVQLVESGGGLVQPGRSLRLSCAASGFTFNDYAMHWVRQAPGKGLEWVSTISWNSGSIGYADSVKGRFTISRDNAKKSLYLQMNSLRAEDTALYYCAKDIQYGNYYYGMDVWGQGTTVTVSSASTKGPSVFPLAPSSKSTSGGTAALGCLVKDYFPEPVTVSWNSGALTSGVHTFPAVLQSSGLYSLSSVVTVPSSSLGTQTYICNVNHKPSNTKVDKKVEPKSC
chain 3: MDMRVPAQLLGLLLLWFPGSRCDIQLTQSPSSLSASVGDRVTMSCKSSQSVLYSANHKNYLAWYQQKPGKAPKLLIYWASTRESGVPSRFSGSGSGTDFTFTISSLQPEDIATYYCHQYLSSWTFGGGTKLEIKRTVAAPSVFIFPPSDEQLKSGTASVVCLLNNFYPREAKVQWKVDNALQSGNSQESVTEQDSKDSTYSLSSTLTLSKADYEKHKVYACEVTHQGLSSPVTKSFNRGEC

EC50 [4]: 16.8 nM
EC50 [5]: 3.85 nM
EC50 [6]: 14.3 nM
B3: FIT018a CD20 (Ofatumumab)/CD3 mAb (bispecific antibody)
chain 1: not shown
chain 2: EVQLVESGGGLVQPGRSLRLSCAASGFTFNDYAMHWVRQAPGKGLEWVSTISWNSGSIGYADSVKGRFTISRDNAKKSLYLQMNSLRAEDTALYYCAKDIQYGNYYYGMDVWGQGTTVTVSSASTKGPSVFPLAPSSKSTSGGTAALGCLVKDYFPEPVTVSWNSGALTSGVHTFPAVLQSSGLYSLSSVVTVPSSSLGTQTYICNVNHKPSNTKVDKKVEPKSC
chain 3: ELVVTQEPSLTVSPGGTVTLTCRSSTGAVTTSNYANWVQQKPGQAPRGLIGGTNKRAPGTPARFSGSLLGGKAALTLSGVQPEDEAEYYCALWYSNLWVFGGGTKLTVLGQPKAAPSVTLFPPSSEELQANKATLVCLISDFYPGAVTVAWKADSSPVKAGVETTTPSKQSNNKYAASSYLSLTPEQWKSHRSYSCQVTHEGSTVEKTVAPTECS
